From article doi:10.1101/2025.08.19.671159 come the findings set out here.

The experiment addresses 14-3-3ζ of the Tni-FNL-produced BRAF complexes (human) (UniProt P63104). The experiment can be described thus: cryo-EM structure; BRAF:14-3-3_(2):MEK complex co-expressed in Tni-FNL insect cells and purified as a complex; 3.8 Å.

“14-3-3ζ of the Tni-FNL-produced BRAF complexes (from UniProt P63104 1-245) (natural protein)” registered a stoichiometry N of 2.

What is called stoichiometry N is the number of molecules, sites or subunits per partner or assembly.
